# pKd: −log10 of the molar value.
# Target: Dendritic cell-specific intercellular adhesion molecule 3-grabbing nonintegrin (DC-SIGN), on the Biacore chip (UniProt Q9NNX6)
# Assay: SPR
# Chain of UniProt Q9NNX6 (Q9NNX6 whole entry): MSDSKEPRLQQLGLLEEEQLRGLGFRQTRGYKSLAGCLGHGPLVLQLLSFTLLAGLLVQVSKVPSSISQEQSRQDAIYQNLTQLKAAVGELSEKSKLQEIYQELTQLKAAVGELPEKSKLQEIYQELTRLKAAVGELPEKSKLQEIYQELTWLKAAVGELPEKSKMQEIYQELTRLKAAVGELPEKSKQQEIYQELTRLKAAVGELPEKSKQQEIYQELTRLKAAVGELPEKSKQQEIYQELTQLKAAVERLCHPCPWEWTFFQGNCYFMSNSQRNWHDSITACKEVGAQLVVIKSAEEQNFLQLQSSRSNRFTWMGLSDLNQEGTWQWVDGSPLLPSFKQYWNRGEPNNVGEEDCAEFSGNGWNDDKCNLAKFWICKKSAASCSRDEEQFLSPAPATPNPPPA
substance,measurement,value
Surface layer protein B (SlpB) from Levilactobacillus brevis JCM 1059 (natural protein),pKd,7.52

# Source: paper doi:10.1101/2023.04.06.534471
